According to article PMC5838168, “Effect of human very low-density lipoproteins on cardiotrophin-like cytokine factor 1 (CLCF1) activity” (Scientific Reports, 2018):

Molecular target: T1, recombinant ApoE3 (human, UniProt P02649 19-317)
T1 construct: Apolipoprotein E, isoform ApoE3; also called apolipoprotein E3; source: bought: BioVision
Assay: AlphaScreen or HTRF; AlphaLISA: ApoE2, 3 or 4 (0-100 nM) with biotinylated CLCF1 (10 nM) in PBS 0.1% BSA, rat anti-ApoE IgG (3 nM), anti-rat IgG acceptor beads, streptavidin donor beads; also with ApoE (30 nM) preincubated with DMPC (0-1000 uM) 1 h at 37 °C
Settings: both partners purified

T1 sequence (P02649 19-317): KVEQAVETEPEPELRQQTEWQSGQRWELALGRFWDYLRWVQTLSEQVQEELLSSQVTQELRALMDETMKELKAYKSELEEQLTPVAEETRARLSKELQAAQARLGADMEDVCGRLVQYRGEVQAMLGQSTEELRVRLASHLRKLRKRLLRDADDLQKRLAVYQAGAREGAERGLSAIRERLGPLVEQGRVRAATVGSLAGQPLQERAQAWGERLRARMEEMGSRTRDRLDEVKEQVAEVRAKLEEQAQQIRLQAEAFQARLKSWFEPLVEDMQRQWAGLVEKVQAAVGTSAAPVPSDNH

binding result: binds
B1: biotinylated human CLCF1 (cardiotrophin-like cytokine factor 1) (ligand, UniProt Q9UBD9 28-225, looked up)
chain: LNRTGDPGPGPSIQKTYDLTRYLEHQLRSLAGTYLNYLGPPFNEPDFNPPRLGAETLPRATVDLEVWRSLNDKLRLTQNYEAYSHLLCYLRGLNRQAATAELRRSLAHFCTSLQGLLGSIAGVMAALGYPLPQPLPGTEPTWTPGPAHSDFLQKMDDFWLLKELQTWLWRSAKDFNRLKKKMQPPAAAVTLHLGAHGF
modifications: biotin on the Avitag (BirA biotin-ligase)
notes: Cardiotrophin-like cytokine factor 1 (CLCF1), human, mature protein, codon optimized synthetic cDNA in pET24d; also called biotinylated hCLCF1; hCLC biot
